T1: human AXL on the surface of tumor cells (human, UniProt P30530 26-894)
T1 construct: whole, on cells; endogenous protein of human tumor cell lines; the cell line is named under assay or readout; also called AXL on the cell surface
T1 sequence (looked up): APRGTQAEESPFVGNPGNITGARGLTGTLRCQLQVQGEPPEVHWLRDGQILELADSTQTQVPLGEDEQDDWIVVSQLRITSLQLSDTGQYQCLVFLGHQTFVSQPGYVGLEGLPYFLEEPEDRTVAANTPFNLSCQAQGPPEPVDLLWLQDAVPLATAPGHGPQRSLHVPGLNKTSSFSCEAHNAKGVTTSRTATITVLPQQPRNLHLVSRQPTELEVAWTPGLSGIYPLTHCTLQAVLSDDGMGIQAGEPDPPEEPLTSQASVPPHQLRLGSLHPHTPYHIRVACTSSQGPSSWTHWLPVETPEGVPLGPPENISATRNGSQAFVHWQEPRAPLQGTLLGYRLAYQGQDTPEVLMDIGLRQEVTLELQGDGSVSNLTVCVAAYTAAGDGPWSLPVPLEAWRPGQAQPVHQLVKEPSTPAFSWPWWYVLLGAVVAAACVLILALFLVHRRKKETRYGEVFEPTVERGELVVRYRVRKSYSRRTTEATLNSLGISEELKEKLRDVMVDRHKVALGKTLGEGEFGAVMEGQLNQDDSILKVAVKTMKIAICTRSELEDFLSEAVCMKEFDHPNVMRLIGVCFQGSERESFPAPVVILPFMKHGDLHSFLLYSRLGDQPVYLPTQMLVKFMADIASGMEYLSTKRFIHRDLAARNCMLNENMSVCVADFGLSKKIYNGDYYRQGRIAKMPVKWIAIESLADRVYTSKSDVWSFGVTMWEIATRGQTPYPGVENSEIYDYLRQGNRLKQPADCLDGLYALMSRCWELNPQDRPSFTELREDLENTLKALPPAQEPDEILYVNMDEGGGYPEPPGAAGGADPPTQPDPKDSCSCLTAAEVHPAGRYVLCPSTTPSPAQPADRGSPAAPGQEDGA

T2: extracellular domain of human AXL protein (AXL-ECD) (human, UniProt P30530 31-449)
T2 construct: expressed in HEK293T cells; coated on the ELISA plate; also called AXL-ECD protein; human AXL extracellular domain protein
T2 sequence: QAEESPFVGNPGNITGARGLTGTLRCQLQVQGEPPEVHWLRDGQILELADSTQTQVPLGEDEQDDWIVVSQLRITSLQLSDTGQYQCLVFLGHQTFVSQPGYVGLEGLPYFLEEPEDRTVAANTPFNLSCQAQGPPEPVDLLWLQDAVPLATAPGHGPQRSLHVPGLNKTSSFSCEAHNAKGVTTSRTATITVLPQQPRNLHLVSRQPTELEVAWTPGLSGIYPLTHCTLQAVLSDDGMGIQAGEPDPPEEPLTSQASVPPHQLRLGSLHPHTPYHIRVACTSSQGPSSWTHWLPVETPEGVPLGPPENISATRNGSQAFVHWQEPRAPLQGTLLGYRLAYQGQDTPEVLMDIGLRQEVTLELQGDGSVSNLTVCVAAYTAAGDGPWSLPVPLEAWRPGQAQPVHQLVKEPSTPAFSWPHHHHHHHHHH

B1: Hu002-5 (antibody, V domains shown)
VH: QVQLVQSGAEVKKPGASVKVSCKASGYPFTDFYINWVRQAPGQGLEWMGWIYPGSGNTKYNEKFKGRVTLTVDTSISTAYMELSRLRSDDTAVYYCARSTGFFDYWGQGTLVTVSS
VL: EIVLTQSPATLSLSPGERATLSCSASSSIGYMYWYQQKPGQAPRLLIYLTSNLASGIPARFSGSGSGTDYTLTISSLEPEDFAVYYCQQWSSNPPTFGQGTKLEIK
notes: humanized from mAb002c; also called Hu002c-5
B2: Hu002-1 (antibody, V domains shown)
VH: QVQLVQSGAEVKKPGASVKVSCKASGYPFTDFYINWVRQAPGQGLEWMGWIYPGSGNTKYNEKFKGRVTMTRDTSISTAYMELSRLRSDDTAVYYCARSTGFFDYWGQGTLVTVSS
VL: EIVLTQSPATLSLSPGERATLSCSASSSIGYMYWYQQKPGQAPRLLIYLTSNLASGIPARFSGSGSGTDFTLTISSLEPEDFAVYYCQQWSSNPPTFGQGTKLEIK
notes: humanized from mAb002c; also called Hu002c-1
B3: Hu002-21 (antibody, V domains shown)
VH: QVQLVQSGAEVKKPGASVKVSCKASGYPFTDFYINWVKQAPGQGLEWIGWIYPGSGNTKYNEKFKGRVTLTVDTSISTAYMELSRLRSDDTAVYYCARSTGFFDYWGQGTLVTVSS
VL: EIVLTQSPDFQSVTPKEKVTITCSASSSIGYMYWYQQKPDQSPKSLIYLTSNLASGVPSRFSGSGSGTDYTLTINSLEAEDAATYYCQQWSSNPPTFGQGTKLEIK
notes: humanized from mAb002c; also called Hu002c-21
B4: Hu002-18 (antibody, V domains shown)
VH: QVQLVQSGAEVKKPGASVKVSCKASGYPFTDFYINWVKQAPGQGLEWIGWIYPGSGNTKYNEKFKGRVTLTVDTSISTAYMELSRLRSDDTAVYYCARSTGFFDYWGQGTLVTVSS
VL: EIVLTQSPDFQSVTPKEKVTITCSASSSIGYMYWYQQKPDQSPKLLIYLTSNLASGVPSRFSGSGSGTDYTLTINSLEAEDAATYYCQQWSSNPPTFGQGTKLEIK
notes: humanized from mAb002c; also called Hu002c-18
B5: Hu002-23 (antibody, V domains shown)
VH: QVQLVQSGAEVKKPGASVKVSCKASGYPFTDFYINWVRQAPGQGLEWMGWIYPGSGNTKYNEKFKGRVTLTVDTSISTAYMELSRLRSDDTAVYYCARSTGFFDYWGQGTLVTVSS
VL: QIVLTQSPDFQSVTPKEKVTITCSASSSIGYMYWYQQKPDQSPKSLIYLTSNLASGVPSRFSGSGSGTDYTLTINSLEAEDAATYYCQQWSSNPPTFGQGTKLEIK
notes: humanized from mAb002c; also called Hu002c-23
B6: Hu002-20 (antibody, V domains shown)
VH: QVQLVQSGAEVKKPGASVKVSCKASGYPFTDFYINWVRQAPGQGLEWMGWIYPGSGNTKYNEKFKGRVTLTVDTSISTAYMELSRLRSDDTAVYYCARSTGFFDYWGQGTLVTVSS
VL: EIVLTQSPDFQSVTPKEKVTITCSASSSIGYMYWYQQKPDQSPKSLIYLTSNLASGVPSRFSGSGSGTDYTLTINSLEAEDAATYYCQQWSSNPPTFGQGTKLEIK
notes: humanized from mAb002c; also called Hu002c-20
B7: Hu002-22 (antibody, V domains shown)
VH: QVQLVQSGAEVKKPGASVKVSCKASGYPFTDFYINWVRQAPGQGLEWMGWIYPGSGNTKYNEKFKGRVTMTRDTSISTAYMELSRLRSDDTAVYYCARSTGFFDYWGQGTLVTVSS
VL: QIVLTQSPDFQSVTPKEKVTITCSASSSIGYMYWYQQKPDQSPKSLIYLTSNLASGVPSRFSGSGSGTDYTLTINSLEAEDAATYYCQQWSSNPPTFGQGTKLEIK
notes: humanized from mAb002c; also called Hu002c-22
B8: Hu002-19 (antibody, V domains shown)
VH: QVQLVQSGAEVKKPGASVKVSCKASGYPFTDFYINWVRQAPGQGLEWMGWIYPGSGNTKYNEKFKGRVTMTRDTSISTAYMELSRLRSDDTAVYYCARSTGFFDYWGQGTLVTVSS
VL: EIVLTQSPDFQSVTPKEKVTITCSASSSIGYMYWYQQKPDQSPKSLIYLTSNLASGVPSRFSGSGSGTDYTLTINSLEAEDAATYYCQQWSSNPPTFGQGTKLEIK
notes: humanized from mAb002c; also called Hu002c-19
B9: Hu002-15 (antibody, V domains shown)
VH: QVQLVQSGAEVKKPGASVKVSCKASGYPFTDFYINWVKQAPGQGLEWIGWIYPGSGNTKYNEKFKGRVTLTVDTSISTAYMELSRLRSDDTAVYYCARSTGFFDYWGQGTLVTVSS
VL: EIVLTQSPDFQSVTPKEKVTITCSASSSIGYMYWYQQKPDQSPKLLIKLTSNLASGVPSRFSGSGSGTDFTLTINSLEAEDAATYYCQQWSSNPPTFGQGTKLEIK
notes: humanized from mAb002c; also called Hu002c-15
B10: Hu002-16 (antibody, V domains shown)
VH: QVQLVQSGAEVKKPGASVKVSCKASGYPFTDFYINWVRQAPGQGLEWMGWIYPGSGNTKYNEKFKGRVTMTRDTSISTAYMELSRLRSDDTAVYYCARSTGFFDYWGQGTLVTVSS
VL: EIVLTQSPDFQSVTPKEKVTITCSASSSIGYMYWYQQKPDQSPKLLIYLTSNLASGVPSRFSGSGSGTDYTLTINSLEAEDAATYYCQQWSSNPPTFGQGTKLEIK
notes: humanized from mAb002c; also called Hu002c-16
B11: Hu002-24 (antibody, V domains shown)
VH: QVQLVQSGAEVKKPGASVKVSCKASGYPFTDFYINWVKQAPGQGLEWIGWIYPGSGNTKYNEKFKGRVTLTVDTSISTAYMELSRLRSDDTAVYYCARSTGFFDYWGQGTLVTVSS
VL: QIVLTQSPDFQSVTPKEKVTITCSASSSIGYMYWYQQKPDQSPKSLIYLTSNLASGVPSRFSGSGSGTDYTLTINSLEAEDAATYYCQQWSSNPPTFGQGTKLEIK
notes: humanized from mAb002c; also called Hu002c-24

Columns and labels:
[1] = biological target: T1, human AXL on the surface of tumor cells; assay: FACS on LCLC-103H cells
Procedure: (§1) Then the obtained solutions were incubated at 4° C. for 1 h, the cells were washed twice with PBS to remove unbound primary antibody, and then the target cells were incubated with 200 μL PE-labeled secondary antibody (2 μg/mL) at 4° C. for 30 min. The cells were washed twice with PBS to remove unbound secondary antibody. Finally, the cells were resuspended in 200 μL PBS, and the binding affinity of the test antibody to AXL on the cell surface was determined by a flow cytometer (FACSCalibur)
The experimental method was referred to Example 8.

[2] = biological target: T1, human AXL on the surface of tumor cells; assay: FACS on MDA-MB-231 cells
Procedure: as §1
24 humanized antibodies in Table-6 were diluted by gradient, and their affinities to AXL, on the surface of MDA-MB-231 cells were determined by flow cytometer. The experimental method was referred to Example 8.

[3] = biological target: T2, extracellular domain of human AXL …; assay: ELISA, plate-coated AXL-ECD
Procedure: The extracellular domain of AXL protein (AXL-ECD) was diluted to […] with the coating solution, and coated onto ELISA plate with 100 μL/well at 4° C. overnight. The excess antigen was washed off. The plate was blocked with 1% BSA at room temperature for 2 h, then each monoclonal antibody in a 3-fold dilution was added at 100 µL/well. The plate was incubated at room temperature for 1 h; the unbound antibody was washed off, and appropriate concentration of anti-mouse secondary antibody labeled with horseradish peroxidase was added at 100 µL/well. The plate was incubated at room temperature for 0.5 h. The unbound secondary antibody was washed off. TMB Substrate was added and reacted for about 15 minutes. 1N HCL was added at 50 µL/well to stop the color reaction. Then the absorbance was measured at 450 nm and the obtained data was analyzed.
24 humanized antibodies in Table-6 were diluted by gradient, and their affinity to AXL-ECD protein was determined by ELISA. The experimental method was referred to Example 4.

| Binder | EC50 [1] | EC50 [2] | Highest MFI value (FACSCalibur) [2] | EC50 [3] | TOP (OD450) [3] |
| --- | --- | --- | --- | --- | --- |
| B1 | 0.36 nM | 0.114 nM | 275 MFI | 0.05 nM | 3.59 OD450 |
| B2 | 0.28 nM | 0.101 nM | 277 MFI | 0.07 nM | 3.62 OD450 |
| B3 | – | 0.132 nM | 273 MFI | 0.046 nM | 3.71 OD450 |
| B4 | – | 0.111 nM | 277 MFI | 0.055 nM | 3.71 OD450 |
| B5 | – | 0.098 nM | 276 MFI | 0.057 nM | 3.69 OD450 |
| B6 | – | 0.099 nM | 277 MFI | 0.054 nM | 3.71 OD450 |
| B7 | – | 0.134 nM | 276 MFI | 0.059 nM | 3.67 OD450 |
| B8 | – | 0.121 nM | 278 MFI | 0.059 nM | 3.73 OD450 |
| B9 | – | 0.099 nM | 268 MFI | 0.05 nM | 3.72 OD450 |
| B10 | – | 0.082 nM | 282 MFI | 0.047 nM | 3.76 OD450 |
| B11 | – | 0.098 nM | 262 MFI | 0.051 nM | 3.65 OD450 |

— patent US20210214447A1 (SHANGHAI INSTITUTE OF MATERIA MEDICA CHINESE ACADEMY OF …, published 2021)
